In US20140323393A1 (CREATIVE BIO PEPTIDES, published 2014):
Where no end group is shown, it is not given here. [ ]: non-standard residue; d: D form.

Biological target: Toll-like receptor 4 (TLR4) on monocyte-derived iDC
Test: cell-based or functional assay

[dT][dT][dN][dY][dT] [All-D-TTNYT (RAP-103)]
IC50 for inhibition of LPS (100 ng/mL) induced TNF-α secretion in monocyte-derived iDC (ELISA of supernatants, FIG. 5): ~0.1 pM
